Test results taken from paper doi:10.1101/2022.10.17.512557.

Biological target: proteasomal catalytic (20S) particle (rat (endogenous in cultured cortical neurons)) (UniProt P48004)
Assay: native gel or EMSA

Sequence of UniProt P48004 (P48004 whole entry, looked up): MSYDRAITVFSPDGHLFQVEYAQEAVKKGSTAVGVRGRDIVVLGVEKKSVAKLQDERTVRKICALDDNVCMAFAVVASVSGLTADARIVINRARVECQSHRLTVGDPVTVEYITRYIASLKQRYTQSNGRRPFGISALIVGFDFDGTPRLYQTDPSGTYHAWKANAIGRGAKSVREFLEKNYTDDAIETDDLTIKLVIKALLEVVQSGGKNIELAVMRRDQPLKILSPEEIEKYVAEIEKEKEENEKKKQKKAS

- percent of total 20S in the free 20S band (neurite fraction): 50%
Substance: proteasomal regulatory (19S) particle (from UniProt P62193 1-440) (complex)
